According to patent US20240150457A1:

How the values were obtained:
[1] = biological target: Recombinant cynomolgus monkey PAR-2 (cynomolgus monkey); experiment: SPR (Biacore), antibody captured on Protein A chip, recombinant PAR-2 injected
[2] = biological target: Cynomolgus monkey PAR-2 on cells (cynomolgus monkey); experiment: cell-based or functional assay
[3] = biological target: Cynomolgus monkey PAR-2 on cells (cynomolgus monkey); experiment: cell-based or functional assay; remark: listed apart in the source

Row | Kd [1] | IC50 mean, calcium flux at SLIGKV EC80 (Nomad line) [2] | IC50 mean, β-arrestin at SLIGKV EC80 (Nomad line) [2] | SLIGKV EC80 mean, calcium flux [3] | SLIGKV EC80 mean, β-arrestin [3] | Binder
1 | 4.45 nM | 3.98 nM | 15.2 nM |  |  | P24E1102 (antibody, human IgG4 S228P, kappa, V domains shown) VH: QVQLVQSGAEVKKPGSSVKVSCKASGFSLSSYAISWVRQAPGQGLEWMGVIWGNQNVYYAQKFQGRVTITADESTSTAYMELSSLRSEDTAVYYCARWKGYKDYPFDYWGQGTLVTVSS VL: EIVLTQSPATLSLSPGERATLSCRASQNVYKWLDWYQQKPGQAPRLLIYNANTRATGIPARFSGSGSGRDFTLTISSLEPEDFAVYYCQQHHSGWTFGGGTKVEIKR
2 |  |  |  | 39000 nM | 107000 nM | SLIGKV
